This is an account of results in doi:10.1101/2021.04.05.438428.

The test deals with microtubule (MT) of HeLa cells (human (endogenous in HeLa)) (UniProt P68363). The experiment in a line: single-molecule live-cell imaging.
Chain of UniProt P68363 (P68363 whole entry): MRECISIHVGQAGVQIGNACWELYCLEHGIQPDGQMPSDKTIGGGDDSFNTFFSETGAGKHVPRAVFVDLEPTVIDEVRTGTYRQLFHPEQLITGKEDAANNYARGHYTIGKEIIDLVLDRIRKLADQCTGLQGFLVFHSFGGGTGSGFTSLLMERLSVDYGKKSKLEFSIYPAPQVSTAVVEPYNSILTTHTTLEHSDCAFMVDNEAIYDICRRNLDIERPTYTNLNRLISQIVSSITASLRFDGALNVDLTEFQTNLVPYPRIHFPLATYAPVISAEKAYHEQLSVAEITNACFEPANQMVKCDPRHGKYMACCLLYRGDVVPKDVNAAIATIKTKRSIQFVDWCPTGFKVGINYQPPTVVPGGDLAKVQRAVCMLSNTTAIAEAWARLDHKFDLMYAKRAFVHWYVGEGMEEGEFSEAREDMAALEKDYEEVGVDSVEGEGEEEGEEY

Take “mouse dynein heavy chain (DYNC1H1) tagged with GFP (from UniProt Q9JHU4 1-4644) (natural protein)”: the dissociation rate constant (koff) turned out to be 1.7 s⁻¹ and the mean residence time amounted to 0.55 s.
